Patent US20080318857A1 (MEDICAL COLLEGE OF GEORGIA RESEARCH INSTITUTE, published 2008)

Target: T1, VEGFR-2 (KDR), endogenous in A375 human malignant melanoma cells (human, UniProt P35968 20-1356, limits assumed)
T1 construct: Endogenous protein in cell lysate; also called Flk
Assay: co-immunoprecipitation: anti-FLT IP of transfected hypoxic A375 cell fraction, Western blot with anti-VEGFR-2
Method: HMMCs transfected with pCMV.Flt23K or pCMV.Flt24K were subjected to hypoxia 48 hours after transfection. Two days later, the cellular fraction was immunoprecipitated with anti-FLT antibody (epitope specific for domains 2 and 3; Santa Cruz, Calif.) and subsequently underwent Western blotting with an anti-VEGF or an anti-VEGFR-2 antibody. A 50 kDa band (consistent with a VEGF homodimer interacting with the intraceptor) was detected in cells transfected with pCMV.Flt23K or pCMV.Flt24K (FIG. 5A). A 30 kDa band was present in cells transfected with pCMV.Flt24K but not pCMV.Flt23K (FIG. 5B).

T1 sequence (P35968 20-1356 limits assumed): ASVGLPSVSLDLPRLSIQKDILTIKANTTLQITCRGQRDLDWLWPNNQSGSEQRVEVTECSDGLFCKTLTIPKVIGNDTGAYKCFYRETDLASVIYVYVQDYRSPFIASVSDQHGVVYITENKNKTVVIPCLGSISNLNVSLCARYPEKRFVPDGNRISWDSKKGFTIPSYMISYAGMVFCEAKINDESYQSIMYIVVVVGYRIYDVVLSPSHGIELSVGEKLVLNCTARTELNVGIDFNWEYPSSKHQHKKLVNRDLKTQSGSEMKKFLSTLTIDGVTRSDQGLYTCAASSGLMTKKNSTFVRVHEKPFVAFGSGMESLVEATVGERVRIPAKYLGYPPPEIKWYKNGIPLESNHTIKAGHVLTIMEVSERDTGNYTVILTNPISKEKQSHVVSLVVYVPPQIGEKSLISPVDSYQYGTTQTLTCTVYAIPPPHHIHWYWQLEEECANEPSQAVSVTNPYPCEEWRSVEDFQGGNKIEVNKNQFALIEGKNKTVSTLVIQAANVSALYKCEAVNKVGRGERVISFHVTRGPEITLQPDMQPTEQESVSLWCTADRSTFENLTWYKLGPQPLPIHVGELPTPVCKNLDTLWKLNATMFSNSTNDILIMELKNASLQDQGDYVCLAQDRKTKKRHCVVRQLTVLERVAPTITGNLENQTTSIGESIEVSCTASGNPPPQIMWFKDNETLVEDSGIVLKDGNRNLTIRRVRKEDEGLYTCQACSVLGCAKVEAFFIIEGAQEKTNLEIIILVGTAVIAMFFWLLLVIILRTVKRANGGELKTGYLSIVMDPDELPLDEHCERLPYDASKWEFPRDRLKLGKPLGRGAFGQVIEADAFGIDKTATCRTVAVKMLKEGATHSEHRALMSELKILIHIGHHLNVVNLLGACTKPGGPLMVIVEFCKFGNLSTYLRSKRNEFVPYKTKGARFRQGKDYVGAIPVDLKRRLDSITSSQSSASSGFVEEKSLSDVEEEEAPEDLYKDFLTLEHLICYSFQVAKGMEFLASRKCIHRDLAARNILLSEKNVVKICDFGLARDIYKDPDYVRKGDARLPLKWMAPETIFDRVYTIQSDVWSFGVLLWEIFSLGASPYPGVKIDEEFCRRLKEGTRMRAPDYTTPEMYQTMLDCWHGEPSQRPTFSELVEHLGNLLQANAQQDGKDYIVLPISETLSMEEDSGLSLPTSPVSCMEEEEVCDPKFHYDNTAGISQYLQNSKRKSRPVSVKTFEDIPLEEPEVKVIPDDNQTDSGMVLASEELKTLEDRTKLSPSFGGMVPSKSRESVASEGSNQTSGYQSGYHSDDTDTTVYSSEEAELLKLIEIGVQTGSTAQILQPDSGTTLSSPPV

binding result: no binding
B1: Flt23K intraceptor (Flt23-KDEL; domains 2 and 3 of VEGFR-1 (Flt) fused at the C-terminus to the ER retention signal KDEL) (receptor)
chain: DTGRPFVEMYSEIPEIIHMTEGRELVIPCRVTSPNITVTLKKFPLDTLIPDGKRIIWDSRKGFIISNATYKEIGLLTCEATVNGHLYKTNYLTHRQTNTIIDVQISTPRPVKLLRGHTLVLNCTATTPLNTRVQMTWSYPDEKNKRASVRRRIDQSNSHANIFYSVLTIDKMQNKDKGLYTCRVRSGPSFKSVNTSVHIYDKAFITVKHRKKDEL
notes: Expressed inside transfected cells from pCMV.Flt23K, not purified; also called pCMV.Flt23K (expression plasmid); pCMV.Flt23
